Measured values as given in patent US20180273621A1 (AstraZeneca / MedImmune, published 2018).
Positions count from the first letter of the chain named. Each block holds one binder with its values, some of them ahead of it.

Tests used:
[1] = molecular target: T1, human CD19 antigen (human, UniProt P15391 20-556); assay: cell based ELISA on 300B4 cells expressing recombinant human CD19, OD450
T1 construct: whole, on cells; also called hCD19; recombinant human CD19
T1 sequence (looked up): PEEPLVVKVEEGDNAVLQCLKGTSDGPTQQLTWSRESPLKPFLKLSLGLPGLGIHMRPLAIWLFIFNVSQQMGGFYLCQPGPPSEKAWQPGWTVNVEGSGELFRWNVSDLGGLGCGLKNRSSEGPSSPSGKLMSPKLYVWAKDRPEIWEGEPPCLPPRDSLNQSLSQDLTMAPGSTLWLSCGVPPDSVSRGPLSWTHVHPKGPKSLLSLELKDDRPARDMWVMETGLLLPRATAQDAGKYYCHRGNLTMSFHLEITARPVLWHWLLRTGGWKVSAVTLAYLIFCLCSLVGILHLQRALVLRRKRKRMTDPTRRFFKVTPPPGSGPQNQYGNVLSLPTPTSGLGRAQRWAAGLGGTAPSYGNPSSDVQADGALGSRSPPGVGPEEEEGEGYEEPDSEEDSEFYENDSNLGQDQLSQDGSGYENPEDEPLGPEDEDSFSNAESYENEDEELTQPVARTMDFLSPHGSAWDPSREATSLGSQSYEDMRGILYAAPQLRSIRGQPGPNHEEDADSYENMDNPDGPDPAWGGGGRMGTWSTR
Method: (§1) 300B4 cells were cultured according to standard protocols in RPMI 1640 medium containing L-glutamine and supplemented with 10% Fetal Calf Serum, β-mercaptoethanol in the presence of 1 mg/ml G418. A standard ELISA protocol can be used for the cell based CD19 binding assay. […] Binding reactions are performed in triplicates for each antibody concentration tested. Negative control wells using an isotype matched antibody of irrelevant specificity should be included in the assay. Following incubation with the antibody 300B4 cells are washed three times with 200 micro liter of ELISA buffer. The amount of chimeric, humanized, or human anti-CD19 antibodies bound to 300B4 cells can be detected using a goat anti-human kappa antibody conjugated with horseradish peroxidase according to standard protocols.
An isotype matched human antibody of irrelevant specificity was included in the assay as a negative control.

[2] = molecular target: T1, human CD19 antigen; assay: as above; remark: listed apart in the source
Method: as §1

[3] = molecular target: T1, human CD19 antigen; assay: cell-based or functional assay
[4] = molecular target: T1, human CD19 antigen; assay: cell based ECL binding assay (Meso Scale Discovery; Lu et al. 2006) on 300B4 cells expressing recombinant human CD19, Fab supernatant, signal in Units
Method: (§2) CDR specific phage display libraries were generated as described above. Libraries were screened by testing a large number of phage clones (approximately 400 clones per library) in single point cell based binding assay (Lu et al., J. Immunol. Methods 314:74-79 (2006)). Reagents and disposables were purchased from Meso Scale Discovery; assays were performed following the manufacturer's instructions.

[5] = molecular target: T1, human CD19 antigen; assay: cell based ECL binding assay (Meso Scale Discovery; Lu et al. 2006) on 300B4 cells as titled on the sheet, Fab supernatant, signal in Units
Method: as §2
(§3) Combinatorial phage display libraries were prepared as described above. Individual Fab clones from the combinatorial library were tested for binding to 300B4 and Raji cells (Lu et al., J. Immunol. Methods 314:74-79 (2006)).

[6] = molecular target: T1, human CD19 antigen; assay: cell based ECL binding assay (Meso Scale Discovery; Lu et al. 2006) on Raji cells as titled on the sheet, Fab supernatant, signal in Units
Method: as §2, §3

ADCC EC50, Daudi target cells [3]: 0.0031 ng/mL
ADCC EC50, Farage target cells [3]: 0.0141 ng/mL
ADCC EC50, Karpas-422 target cells [3]: 0.0181 ng/mL
ADCC EC50, Karpas-1106P target cells [3]: 0.009 ng/mL
ADCC EC50, Nalm-6 target cells [3]: 0.0199 ng/mL
ADCC EC50, Namalwa target cells [3]: 0.012 ng/mL
ADCC EC50, Oci-LY19 target cells [3]: 0.0163 ng/mL
ADCC EC50, RL target cells [3]: 0.0073 ng/mL
ADCC EC50, Raji target cells [3]: 0.003 ng/mL
ADCC EC50, Toledo target cells [3]: 0.0075 ng/mL
B2: afucosylated 16C4 anti-CD19 antibody (antibody, human IgG1, V domains shown)
VH: EVQLVESGGGLVQPGGSLRLSCAASGFTFSSSWMNWVRQAPGKGLEWVGRIYPGDGDTNYNVKFKGRFTISRDDSKNSLYLQMNSLKTEDTAVYYCARSGFITTVRDFDYWGQGTLVTVSS
VL: EIVLTQSPDFQSVTPKEKVTITCRASESVDTFGISFMNWFQQKPDQSPKLLIHEASNQGSGVPSRFSGSGSGTDFTLTINSLEAEDAATYYCQQSKEVPFTFGGGTKVEIK
modifications: afucosylated Fc N-glycan (as for 3649-aFuc)
% max. cell kill at 10 ug/ml, DB target cells [3]: 34%
% max. cell kill at 10 ug/ml, Daudi target cells [3]: 50%
% max. cell kill at 10 ug/ml, Farage target cells [3]: 48%
% max. cell kill at 10 ug/ml, Granta-519 target cells [3]: 6%
% max. cell kill at 10 ug/ml, Karpas-422 target cells [3]: 62%
% max. cell kill at 10 ug/ml, Karpas-1106P target cells [3]: 59%
% max. cell kill at 10 ug/ml, Nalm-6 target cells [3]: 35%
% max. cell kill at 10 ug/ml, Namalwa target cells [3]: 23%
% max. cell kill at 10 ug/ml, Oci-LY19 target cells [3]: 47%
% max. cell kill at 10 ug/ml, RL target cells [3]: 45%
% max. cell kill at 10 ug/ml, Raji target cells [3]: 43%
% max. cell kill at 10 ug/ml, Toledo target cells [3]: 48%

ADCC EC50, Daudi target cells [3]: 0.0576 ng/mL
ADCC EC50, Farage target cells [3]: 0.0536 ng/mL
ADCC EC50, Karpas-422 target cells [3]: 0.0442 ng/mL
ADCC EC50, Karpas-1106P target cells [3]: 0.0142 ng/mL
ADCC EC50, Nalm-6 target cells [3]: 0.0605 ng/mL
ADCC EC50, Namalwa target cells [3]: 0.04 ng/mL
ADCC EC50, Oci-LY19 target cells [3]: 0.0518 ng/mL
ADCC EC50, RL target cells [3]: 0.0194 ng/mL
ADCC EC50, Raji target cells [3]: 0.009 ng/mL
ADCC EC50, Toledo target cells [3]: 0.0155 ng/mL
B5: afucosylated 3649 anti-CD19 antibody (antibody, human IgG1, V domains shown)
VH: B2 VH with V62G, R106L
VL: B2 VL with E54A
modifications: complex N-glycoside-linked sugar chains linked to Asn297 of the Fc region in which fucose is not bound to N-acetylglucosamine in the reducing end
% max. cell kill at 10 ug/ml, DB target cells [3]: 42%
% max. cell kill at 10 ug/ml, Daudi target cells [3]: 51%
% max. cell kill at 10 ug/ml, Farage target cells [3]: 48%
% max. cell kill at 10 ug/ml, Granta-519 target cells [3]: 9%
% max. cell kill at 10 ug/ml, Karpas-422 target cells [3]: 64%
% max. cell kill at 10 ug/ml, Karpas-1106P target cells [3]: 59%
% max. cell kill at 10 ug/ml, Nalm-6 target cells [3]: 39%
% max. cell kill at 10 ug/ml, Namalwa target cells [3]: 25%
% max. cell kill at 10 ug/ml, Oci-LY19 target cells [3]: 54%
% max. cell kill at 10 ug/ml, RL target cells [3]: 46%
% max. cell kill at 10 ug/ml, Raji target cells [3]: 44%
% max. cell kill at 10 ug/ml, Toledo target cells [3]: 53%

EC50 (read off the curve) [2]: ~80 ng/mL
B6: humanized anti-CD19 antibody #2 comprising HB12B-(3-72/JH4) VH, HB12B-3649 VK, and IgG1 heavy chain constant region (antibody, V domains shown)
VH: B2 VH with V62G, R106L
VL: B2 VL with E54A
notes: also called humanized HB12B antibody #2

EC50 (read off the curve) [5]: ~500 ng/mL
B8: 6C11 affinity matured Fab (Fab, V domains shown)
VH: B2 VH with S32V, P53L
VL: B2 VL with Q58P, S95T, E97R
notes: Fab

EC50 (read off the curve) [4]: ~1000 ng/mL
B11: 64D4 affinity matured Fab (16C4 variant, VH CDR2 Pro > Leu at 52A) (Fab, V domains shown)
VH: B2 VH with P53L
VL: B2 VL
notes: Fab with human γ1 CH1 and human kappa constant domain; position is Kabat

The next lines start with the binder.

B1: Chimeric HB12B antibody comprising HB12B VH and HB12B VK (antibody, human IgG1, V domains shown)
VH: QVQLQQSGPELVKPGASVKISCKASGYAFSSSWMNWVIQRPGQGLEWIGRIYPGDGDTNYNGKFKGKATLTADKSSSTAYMQLSSLTSVDSAVYFCARSGFITTVLDFDYWGHGTTLTVSS
VL: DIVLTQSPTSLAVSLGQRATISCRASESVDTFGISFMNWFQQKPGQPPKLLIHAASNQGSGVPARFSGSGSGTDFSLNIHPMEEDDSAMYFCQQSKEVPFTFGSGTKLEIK
notes: also called chHB12B; chimeric anti-CD19 antibody
EC50 (read off the curve) [1]: ~200 ng/mL
EC50 (read off the curve) [2]: ~80 ng/mL

B3: 16C4 Fab (Fab, V domains shown)
VH: B2 VH
VL: B2 VL
notes: Fab with human γ1 CH1 and human kappa constant domain; also called Clone 16C4; 16C4sup
EC50 (read off the curve) [4]: ~1000 ng/mL

B4: 16C4 affinity matured anti-CD19 IgG antibody (antibody, V domains shown)
VH: B2 VH
VL: B2 VL
% max. cell kill at 10 ug/ml, DB target cells [3]: 6%
% max. cell kill at 10 ug/ml, Daudi target cells [3]: 16%
% max. cell kill at 10 ug/ml, Farage target cells [3]: 13%
% max. cell kill at 10 ug/ml, Granta-519 target cells [3]: 0%
% max. cell kill at 10 ug/ml, Karpas-422 target cells [3]: 6%
% max. cell kill at 10 ug/ml, Karpas-1106P target cells [3]: 16%
% max. cell kill at 10 ug/ml, Nalm-6 target cells [3]: 17%
% max. cell kill at 10 ug/ml, Namalwa target cells [3]: 4%
% max. cell kill at 10 ug/ml, Oci-LY19 target cells [3]: 6%
% max. cell kill at 10 ug/ml, RL target cells [3]: 15%
% max. cell kill at 10 ug/ml, Raji target cells [3]: 26%
% max. cell kill at 10 ug/ml, Toledo target cells [3]: 12%
ADCC EC50, Daudi target cells [3]: 0.0576 ng/mL
ADCC EC50, Farage target cells [3]: 0.0927 ng/mL
ADCC EC50, Karpas-1106P target cells [3]: 0.533 ng/mL
ADCC EC50, RL target cells [3]: 0.0393 ng/mL
ADCC EC50, Raji target cells [3]: 0.012 ng/mL
ADCC EC50, Toledo target cells [3]: 0.0545 ng/mL

B7: humanized anti-CD19 antibody #1 comprising HB12B-(3-72/JH4) VH and HB12B-364987 VK (antibody, human IgG1, V domains shown)
VH: B2 VH with V62G, R106L
VL: B2 VL with E54A, Y91F
notes: Human IgG1/kappa constant regions; also called humanized HB12B antibody #1
EC50 (read off the curve) [1]: ~200 ng/mL
EC50 (read off the curve) [2]: ~70 ng/mL

B9: 3C3 affinity matured Fab (16C4 variant) (Fab, V domains shown)
VH: B2 VH with S32V
VL: B2 VL with T31H, M37I, Q58P, G59Y, Q93A, F100I
notes: Fab
EC50 (read off the curve) [6]: ~300 ng/mL
EC50 (read off the curve) [5]: ~400 ng/mL

B10: 5C4 affinity matured Fab (Fab, V domains shown)
VH: B2 VH with S32V
VL: B2 VL with D30I, M37I, Q58P, G59Y, Q93A, S95T, E97R
notes: Fab
EC50 (read off the curve) [5]: ~400 ng/mL
